Columns and labels:
Assay in all cases: BLI
SUMO-FtsZ^370-383 = target: T1, SUMO-FtsZ^370-383 (Escherichia coli, UniProt P0A9A6 370-383)
T1 chain: DYLDIPAFLRKQAD

SUMO-FtsZ^316-370 = target: T2, SUMO-FtsZ^316-370 (Escherichia coli, UniProt P0A9A6 316-370)
T2 chain: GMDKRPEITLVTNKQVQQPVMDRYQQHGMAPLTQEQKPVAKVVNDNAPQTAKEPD

6×His-ZapC^K94D = 6×His-ZapC^K94D (Escherichia coli, UniProt P75862 1-180, K94D)
6×His-ZapC^F30D = 6×His-ZapC^F30D (Escherichia coli, UniProt P75862 1-180, F30D)

B1: ZapC (untagged) (natural protein)
chain: not shown
Kd (SUMO-FtsZ^370-383): 11.4 µM
Kd (SUMO-FtsZ^316-370): 50.7 µM

B2: FtsZ (wild-type, untagged) (natural protein)
chain: MFEPMELTNDAVIKVIGVGGGGGNAVEHMVRERIEGVEFFAVNTDAQALRKTAVGQTIQIGSGITKGLGAGANPEVGRNAADEDRDALRAALEGADMVFIAAGMGGGTGTGAAPVVAEVAKDLGILTVAVVTKPFNFEGKKRMAFAEQGITELSKHVDSLITIPNDKLLKVLGRGISLLDAFGAANDVLKGAVQGIAELITRPGLMNVDFADVRTVMSEMGYAMMGSGVASGEDRAEEAAEMAISSPLLEDIDLSGARGVLVNITAGFDLRLDEFETVGNTIRAFASDNATVVIGTSLDPDMNDELRVTVVATGIGMDKRPEITLVTNKQVQQPVMDRYQQHGMAPLTQEQKPVAKVVNDNAPQTAKEPDYLDIPAFLRKQAD
Kd (6×His-ZapC^K94D): 2.1 µM
Kd (6×His-ZapC^F30D): 2.97 µM
